The numbers were not newly measured in paper PMC5838028, which cites them from elsewhere.

The target of this data set is glypican-3 (Homo sapiens) (UniProt P51654).
Sequence of glypican-3 (Homo sapiens) (P51654 359-554): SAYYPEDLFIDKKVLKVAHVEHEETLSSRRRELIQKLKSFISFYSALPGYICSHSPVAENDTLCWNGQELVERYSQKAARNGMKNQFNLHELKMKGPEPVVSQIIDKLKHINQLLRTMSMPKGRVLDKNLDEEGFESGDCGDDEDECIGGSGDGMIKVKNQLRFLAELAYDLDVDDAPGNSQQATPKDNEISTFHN

A word on the Kd: it is the constant that tells how readily two partners part at equilibrium. On to codrituzumab, for which the equilibrium dissociation constant (Kd) is 0.673 nM.
